One may read the stoichiometry N as the number of molecules, sites or subunits per partner or assembly.

Experiment [1] addresses AmtB with the C312T mutation (trimeric ammonia channel from Escherichia coli) (Escherichia coli) (UniProt P69681). As to the kind of experiment: native MS.
A further experiment has as its target GlnK with Y51F mutation (UniProt P0AC55). Nature of the experiment: native MS.

“AmtB with the C312T mutation (trimeric ammonia channel from Escherichia coli) (from UniProt P69681 23-428) (natural protein)”: the stoichiometry N in experiment [1] worked out at 3.

For “GlnK with Y51F mutation (from UniProt P0AC55 1-112) (natural protein)”, the stoichiometry N with GlnK with Y51F mutation came out at 3.

The values are drawn from paper PMC8056390.
